The values below come from US20050222029A1 (MYRIAD GENETICS, published 2005).

Sequences and labels used below:
B8: Tumor Suppressor (TSG101) 147-391 (other, human, UniProt Q99816 147-390, looked up)
chain: SASYPPYQATGPPNTSYMPGMPGGISPYPSGYPPNPSGYPGCPYPPGGPYPATTSSQYPSQPPVTTVGPSRDGTISEDTIRASLISAVSDKLRWRMKEEMDRAQAELNALKRTEEDLKKGHQKLEEMVTRLDQEVAEVDKNIELLKKKDEELSSALEKMENQSENNDIDEVIIPTAPLYKQILNLYAEENAIEDTIFYLGEALRRGVIDLDVFLKHVRLLSRKQFQLRALMQKARKTAGLSDLY
notes: bait (Gal4 DBD fusion)

Holding throughout (assay): yeast two-hybrid
Experiment [1] has as its target T1, Tumor Suppressor (TSG101) 140-270 (human, UniProt Q99816 140-270).
T1 construct: range 140-270; bait (Gal4 DBD fusion)
T1 sequence (looked up): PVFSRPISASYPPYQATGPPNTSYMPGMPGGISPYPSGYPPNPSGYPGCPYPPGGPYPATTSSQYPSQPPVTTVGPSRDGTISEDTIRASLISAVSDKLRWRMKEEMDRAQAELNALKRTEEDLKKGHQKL

Experiment [2] has as its target T2, Tumor Suppressor (TSG101) 50-391 (human, UniProt Q99816 50-390).
T2 construct: range 50-391; bait (Gal4 DBD fusion)
T2 sequence (looked up): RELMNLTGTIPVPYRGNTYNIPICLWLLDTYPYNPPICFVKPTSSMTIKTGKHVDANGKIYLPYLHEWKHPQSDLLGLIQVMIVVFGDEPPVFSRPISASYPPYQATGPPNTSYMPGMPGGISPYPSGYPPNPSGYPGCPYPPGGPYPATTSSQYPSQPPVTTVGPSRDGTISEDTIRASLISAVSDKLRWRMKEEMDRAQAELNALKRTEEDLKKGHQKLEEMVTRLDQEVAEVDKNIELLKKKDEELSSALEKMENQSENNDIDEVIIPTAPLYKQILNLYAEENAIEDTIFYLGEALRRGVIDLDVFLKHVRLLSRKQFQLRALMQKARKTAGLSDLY

Experiment [3] has as its target B8.
Experiment [4] addresses T3, Golgi autoantigen (Golgin-84) 198-501 (human, UniProt Q8TBA6 198-501).
T3 construct: prey (Gal4 AD-HA fusion)
T3 sequence (looked up): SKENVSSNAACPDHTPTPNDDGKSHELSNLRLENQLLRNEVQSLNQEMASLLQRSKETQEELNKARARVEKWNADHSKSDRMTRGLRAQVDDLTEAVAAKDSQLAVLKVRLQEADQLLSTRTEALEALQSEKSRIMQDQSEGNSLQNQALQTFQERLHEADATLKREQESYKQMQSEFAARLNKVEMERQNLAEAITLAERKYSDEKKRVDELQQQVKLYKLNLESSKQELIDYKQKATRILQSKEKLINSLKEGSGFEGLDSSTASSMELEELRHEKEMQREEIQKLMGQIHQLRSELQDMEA

Experiment [5] addresses T4, v-akt murine thymoma viral oncogene homolog 1 (AKT1) 1-150 (human, UniProt P31749 1-150).
T4 construct: range 1-150; bait (Gal4 DBD fusion)

T4 sequence (P31749 1-150 limits assumed): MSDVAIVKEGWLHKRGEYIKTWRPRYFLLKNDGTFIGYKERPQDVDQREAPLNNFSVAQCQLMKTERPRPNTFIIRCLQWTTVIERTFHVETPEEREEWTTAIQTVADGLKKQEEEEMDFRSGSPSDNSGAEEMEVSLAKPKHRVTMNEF

B1: Hypothetical protein FLJ10540 1-74 (other, human, UniProt Q53EZ4 1-74, looked up)
chain: MSSRSTKDLIKSKWGSKPSNSKSETTLEKLKGEIAHLKTSVDEITSGKGKLTDKERHRLLEKIRVLEAEKEKNA
notes: range 1-74; prey (Gal4 AD-HA fusion)
Take B1: the binding result in experiment [1] was “binds”.

B2: Hypothetical protein FLJ10540 1-231 (other, human, UniProt Q53EZ4 1-231, looked up)
chain: MSSRSTKDLIKSKWGSKPSNSKSETTLEKLKGEIAHLKTSVDEITSGKGKLTDKERHRLLEKIRVLEAEKEKNAYQLTEKDKEIQRLRDQLKARYSTTTLLEQLEETTREGERREQVLKALSEEKDVLKQQLSAATSRIAELESKTNTLRLSQTVAPNCFNSSINNIHEMEIQLKDALEKNQQWLVYDQQREVYVKGLLAKIFELEKKTETAAHSLPQQTKKPESEGYLQE
notes: prey (Gal4 AD-HA fusion)
Turning to B2, the binding result in experiment [2] is listed as “binds”.

B3: Hypothetical protein FLJ10540 115-231 (other, human, UniProt Q53EZ4 115-231, looked up)
chain: EQVLKALSEEKDVLKQQLSAATSRIAELESKTNTLRLSQTVAPNCFNSSINNIHEMEIQLKDALEKNQQWLVYDQQREVYVKGLLAKIFELEKKTETAAHSLPQQTKKPESEGYLQE
notes: prey (Gal4 AD-HA fusion)
Regarding B3, in experiment [2], the binding result is “binds”.

B4: Hypothetical protein FLJ10540 1-110 (other, human, UniProt Q53EZ4 1-110, looked up)
chain: MSSRSTKDLIKSKWGSKPSNSKSETTLEKLKGEIAHLKTSVDEITSGKGKLTDKERHRLLEKIRVLEAEKEKNAYQLTEKDKEIQRLRDQLKARYSTTTLLEQLEETTRE
notes: range 1-110; prey (Gal4 AD-HA fusion)
For the molecule B4, the binding result in experiment [2] was “binds”.

B5: Hypothetical protein FLJ10540 1-117 (other, human, UniProt Q53EZ4 1-117, looked up)
chain: MSSRSTKDLIKSKWGSKPSNSKSETTLEKLKGEIAHLKTSVDEITSGKGKLTDKERHRLLEKIRVLEAEKEKNAYQLTEKDKEIQRLRDQLKARYSTTTLLEQLEETTREGERREQV
notes: prey (Gal4 AD-HA fusion)
In the case of B5, the binding result in experiment [2] is recorded as “binds”.

B6: VPS28 protein 27-221 (other, human, UniProt Q9UK41 27-221, looked up)
chain: YKNAREREKYDNMAELFAVVKTMQALEKAYIKDCVSPSEYTAACSRLLVQYKAAFRQVQGSEISSIDEFCRKFRLDCPLAMERIKEDRPITIKDDKGNLNRCIADVVSLFITVMDKLRLEIRAMDEIQPDLRELMETMHRMSHLPPDFEGRQTVSQWLQTLSGMSASDELDDSQVRQMLFDLESAYNAFNRFLHA
notes: prey (Gal4 AD-HA fusion); also called vacuolar protein sorting 28
With B6, in experiment [3], the binding result was “binds”.

B7: VPS28 protein 10-221 (other, human, UniProt Q9UK41 10-221, looked up)
chain: GIGAPGNKPELYEEVKLYKNAREREKYDNMAELFAVVKTMQALEKAYIKDCVSPSEYTAACSRLLVQYKAAFRQVQGSEISSIDEFCRKFRLDCPLAMERIKEDRPITIKDDKGNLNRCIADVVSLFITVMDKLRLEIRAMDEIQPDLRELMETMHRMSHLPPDFEGRQTVSQWLQTLSGMSASDELDDSQVRQMLFDLESAYNAFNRFLHA
notes: as for B6
Regarding B7, the binding result in experiment [3] is “binds”.

As to B8, the binding result in experiment [4] is reported as “binds”.

B9: Hypothetical protein FLJ10540 1-115 (other, human, UniProt Q53EZ4 1-115, looked up)
chain: MSSRSTKDLIKSKWGSKPSNSKSETTLEKLKGEIAHLKTSVDEITSGKGKLTDKERHRLLEKIRVLEAEKEKNAYQLTEKDKEIQRLRDQLKARYSTTTLLEQLEETTREGERRE
notes: prey (Gal4 AD-HA fusion)
With B9, in experiment [1], the binding result is given as “binds”.

B10: Hypothetical protein FLJ10540 1-120 (other, human, UniProt Q53EZ4 1-120, looked up)
chain: MSSRSTKDLIKSKWGSKPSNSKSETTLEKLKGEIAHLKTSVDEITSGKGKLTDKERHRLLEKIRVLEAEKEKNAYQLTEKDKEIQRLRDQLKARYSTTTLLEQLEETTREGERREQVLKA
notes: range 1-120; prey (Gal4 AD-HA fusion)
In the case of B10, the binding result in experiment [1] is listed as “binds”.

B11: farnesyltransferase, CAAX box, alpha (FNTA) 189-328 (enzyme)
chain: not shown
notes: prey (Gal4 AD-HA fusion)
In the case of B11, the binding result in experiment [5] was “binds”.
